Source: patent US11254722B2, “Recombinant proteins and uses thereof” (ACADEMIA SINICA, priority 2017, dated 2022)

B1: 3(del2)3: IGFBP3 with IGFBP3 linker deletion 2-Fc, SEQ ID NO: 11 (protein)
chain: MSEVPVARVWLVLLLLTVQVGVTAGGASSAGLGPVVRCEPCDARALAQCAPPPAVCAELVREPGCGCCLTCALSEGQPCGIYTERCGSGLRCQPSPDEARPLQALLDGRGLCVNASAVSRPAPPAPGNASESEEDRSAGSVESPSVSSTHRVSDPKFHPKGHAKDSQRYKVDYESQSTDTQNFSSESKRETEYGPCRREMEDTLNHLKFLNVLSPRGVHIPNCDKKGFYKKKQCRPSKGRKRGFCWCVDKYGQPLPGYTTKGKEDVHCYSMQSKVECPPCPAPPVAGPSVFLFPPKPKDQLMISRTPEVTCVVVDVSHEDPEVKFNWYVDGVEVHNAKTKPREEQYNSTYRVVSVLTVLHQDWLNGKEYKCKVSNKGLPSSIEKTISKAKGQPREPQVYTLPPSREEMTKNQVSLTCLVKGFYPSDIAVEWESNGQPENNYKTTPPVLDSDGSFFLYSKLTVDKSRWQQGNVFSCSVMHEGLHNHYTQKSLSLSPGK
B2: D2V1V2Fc: IGFBP3 with IGFBP3 linker deletion 2-gly 3 linker-v1v2-Fc, SEQ ID NO: 17 (protein)
chain: MSEVPVARVWLVLLLLTVQVGVTAGHHHHHHGASSAGLGPVVRCEPCDARALAQCAPPPAVCAELVREPGCGCCLTCALSEGQPCGIYTERCGSGLRCQPSPDEARPLQALLDGRGLCVNASAVSRPAPPAPGNASESEEDRSAGSVESPSVSSTHRVSDPKFHPKGHAKDSQRYKVDYESQSTDTQNFSSESKRETEYGPCRREMEDTLNHLKFLNVLSPRGVHIPNCDKKGFYKKKQCRPSKGRKRGFCWCVDKYGQPLPGYTTKGKEDVHCYSMQSKAPPAPGNASESEEDRSAGIYIFISDTGRPFVEMYSEIPEIIHMTEGRELVIPCRVTSPNITVTLKKFPLDTLIPDGKRIIWDSRKGFIISNATYKEIGLLTCEATVNGHLYKTNYLTHRQGYRIYDVVLSPSHGIELSVGEKLVLNCTARTELNVGIDFNWEYPSSKHQHKKLVNRDLKTQSGSEMKKFLSTLTIDGVTRSDQGLYTCAASSGLMTKKNSTFVRVHEKVECPPCPAPPVAGPSVFLFPPKPKDQLMISRTPEVTCVVVDVSHEDPEVKFNWYVDGVEVHNAKTKPREEQYNSTYRVVSVLTVLHQDWLNGKEYKCKVSNKGLPSSIEKTISKAKGQPREPQVYTLPPSREEMTKNQVSLTCLVKGFYPSDIAVEWESNGQPENNYKTTPPVLDSDGSFFLYSKLTVDKSRWQQGNVFSCSVMHEGLHNHYTQKSLSLSPGK
B3: 4141: SEQ ID NO: 23; a fragment comprising the N-terminus and the linker region from h3t33 (protein)
chain: MSEVPVARVWLVLLLLTVQVGVTAGGASSAGLGPVVRCEPCDARALAQCAPPPAVCAELVREPGCGCCLTCALSEGQPCGIYTERCGSGLRCQPSPDEARPLQALLDGRGLCVNASAVSKGHAKDSQRYKVDYESQSTDTQNFSSESKRETEYVECPPCPAPPVAGPSVFLFPPKPKDQLMISRTPEVTCVVVDVSHEDPEVKFNWYVDGVEVHNAKTKPREEQYNSTYRVVSVLTVLHQDWLNGKEYKCKVSNKGLPSSIEKTISKAKGQPREPQVYTLPPSREEMTKNQVSLTCLVKGFYPSDIAVEWESNGQPENNYKTTPPVLDSDGSFFLYSKLTVDKSRWQQGNVFSCSVMHEGLHNHYTQKSLSLSPGK
B4: 4142: SEQ ID NO: 24; the N-terminus only (protein)
chain: MSEVPVARVWLVLLLLTVQVGVTAGGASSAGLGPVVRCEPCDARALAQCAPPPAVCAELVREPGCGCCLTCALSEGQPCGIYTERCGSGLRCQPSPDEARPLQALLDGRGLCVNASAVSVECPPCPAPPVAGPSVFLFPPKPKDQLMISRTPEVTCVVVDVSHEDPEVKFNWYVDGVEVHNAKTKPREEQYNSTYRVVSVLTVLHQDWLNGKEYKCKVSNKGLPSSIEKTISKAKGQPREPQVYTLPPSREEMTKNQVSLTCLVKGFYPSDIAVEWESNGQPENNYKTTPPVLDSDGSFFLYSKLTVDKSRWQQGNVFSCSVMHEGLHNHYTQKSLSLSPGK
B5: 4382: SEQ ID NO: 25; the complete link region (protein)
chain: MSEVPVARVWLVLLLLTVQVGVTAGGASSAVNASAVSRLRAYLLPAPPAPGNASESEEDRSAGSVESPSVSSTHRVSDPKFHPLHSKIIIIKKGHAKDSQRYKVDYESQSTDTQNFSSESKREVECPPCPAPPVAGPSVFLFPPKPKDQLMISRTPEVTCVVVDVSHEDPEVKFNWYVDGVEVHNAKTKPREEQYNSTYRVVSVLTVLHQDWLNGKEYKCKVSNKGLPSSIEKTISKAKGQPREPQVYTLPPSREEMTKNQVSLTCLVKGFYPSDIAVEWESNGQPENNYKTTPPVLDSDGSFFLYSKLTVDKSRWQQGNVFSCSVMHEGLHNHYTQKSLSLSPGK
B6: IGFBP3-v1v2-erbB4-Fc: ErbB4-GS-IGFBP3-gly 3 linker-v1v2-Fc, SEQ ID NO: 20 (protein)
chain: MSEVPVARVWLVLLLLTVQVGVTAGVQPSDSQSVCAGTENKLSSLSDLEQQYRALRKYYENCEVVMGNLEITSIEHNRDLSFLRSVREVTGYVLVALNQFRYLPLENLRIIRGTKLYEDRYALAIFLNYRKDGNFGLQELGLKNLTEILNGGVYVDQNKFLCYADTIHWQDIVRNPWPSNLTLVSTNGSSGCGRCHKSCTGRCWGPTENHCQTLTRTVGGGGSGGGGSGGGGSGGGGSGGGGGASSAGLGPVVRCEPCDARALAQCAPPPAVCAELVREPGCGCCLTCALSEGQPCGIYTERCGSGLRCQPSPDEARPLQALLDGRGLCVNASAVSKGHAKDSQRYKVDYESQSTDTQNFSSESKRETEYGPCRREMEDTLNHLKFLNVLSPRGVHIPNCDKKGFYKKKQCRPSKGRKRGFCWCVDKYGQPLPGYTTKGKEDVHCYSMQSKAPPAPGNASESEEDRSAGIYIFISDTGRPFVEMYSEIPEIIHMTEGRELVIPCRVTSPNITVTLKKFPLDTLIPDGKRIIWDSRKGFIISNATYKEIGLLTCEATVNGHLYKTNYLTHRQGYRIYDVVLSPSHGIELSVGEKLVLNCTARTELNVGIDFNWEYPSSKHQHKKLVNRDLKTQSGSEMKKFLSTLTIDGVTRSDQGLYTCAASSGLMTKKNSTFVRVHEKVECPPCPAPPVAGPSVFLFPPKPKDQLMISRTPEVTCVVVDVSHEDPEVKFNWYVDGVEVHNAKTKPREEQYNSTYRVVSVLTVLHQDWLNGKEYKCKVSNKGLPSSIEKTISKAKGQPREPQVYTLPPSREEMTKNQVSLTCLVKGFYPSDIAVEWESNGQPENNYKTTPPVLDSDGSFFLYSKLTVDKSRWQQGNVFSCSVMHEGLHNHYTQKSLSLSPGK

Assays:
[1] = tested on: HUVEC cells; assay: HUVEC proliferation assay; assay type: cell-based
Experimental: (§1) MCF-7 cells (a breast cancer cell line) were maintained in MEM (GIBCO) plus insulin and NEAA and 10% FBS (Hyclone).
(§2) For the proliferation assay, cells except for HUVEC were seeded at a density of 1,000 to 6,000 in 96 wells in an assay buffer of DMEM/F12 plus 0.2% BSA and 10 ug/ml transferrin. Chemical inhibitors were added after 16-20 hours after plating; IGF-1 or other growth factors or test chimeras in assay buffer were added at the time of plating or 16-20 hours after plating. 5,000 HUVEC ells were plated in poly-L-lysine coated 96 wells in M199 with 1%/FBS and HEPES. After 3 to 4 days of culture, growth was determined by incubating cells with Alamar blue for 4 to 6 hours and then the fluorescence (RFU) at 544/590 nm was read. For long term proliferation assays, cells were plated in the growth media with 5% or 10% FBS at densities of 500 to 10,000 cells per cm^2 growth area and grown for 7 to 21 days. Inhibitors and effectors were added 1-4 days after plating. Cells were exposed to cisplatin or gemcitabine for two days. Medium was renewed twice weekly. At completion, cells were fixed and then stained with Giemsa.
Growth factor synergism can also be observed in the proliferation of HUVEC cells.

[2] = tested on: HT29 cells; assay: HT29 proliferation assay; assay type: cell-based, human; conditions: FIG. 17A isobologram, FIG. 17B
Experimental: as §1, §2
The combination of drug (erlotinib and vemurafenib in hep3b and HT29 cells, respectively) and chimera can be synergistic; so, in addition to enhancing the inhibition, the chimera addition may also lower drug concentration requirements and reduce side effects.

[3] = target: T1, IGF-1 (Homo sapiens, UniProt P05019); assay: Biacore binding to IGF-1; parameters: key to growth factor binding, igf1: +: sufficient to bind; −: unable to bind; conditions: tested in .65M NaCL
T1 construct: purchased R&D Sciences or SinoBiologicals
Experimental: (§3) Biacore binding was performed at David Myszka's laboratory at the University of Utah or at the Genomic Research Center at Academia Sinica. Surfaces of binding protein chimera were made via chemical immobilization on a CM4 chip using standard amine coupling chemistry. […] Excess surface carboxyl activated sites on all four flow cells was blocked using the doubly positively charged species ethylenediamine. Binding experiments (but not immobilizations) in HBS-P (10 mM HEPES pH 7.4, 150 mM NaCl, 0.05% P20), The HBS-P was supplemented with BSA at 0.2 mg/mL, or HBS-P was supplemented with 500 mM NaCl (650 mM NaCl, final concentration). Analytes were also reconstituted in the corresponding buffer. All experiments were performed at 25° C. 1/150 dilutions of phosphoric acid were used to regenerate IGFBP3-Fc surfaces and a sequence of 3 M MgCl2 followed by 5 M GuCl was used to regenerate surfaces immobilized with growth factor. Dissociation constants reported below used immobilized binding protein unless noted. Differences between binding constants may be expected between growth factor immobilization and chimera immobilization.

[4] = target: T2, IGF-2 (Homo sapiens, UniProt P01344); assay: Biacore binding to IGF-2; parameters: key: +: sufficient to bind; −: unable to bind; conditions: tested in .65M NaCL
T2 construct: purchased R&D Sciences or SinoBiologicals
Experimental: as §3

[5] = target: T3, PDGF AB (Homo sapiens, UniProt P01127+P04085); assay: Biacore binding to PDGF AB; parameters: key: +: sufficient to bind; −: unable to bind; conditions: tested in .65M NaCL
T3 construct: purchased R&D Sciences or SinoBiologicals
Experimental: as §3

[6] = target: T4, bFGF (Homo sapiens, UniProt P09038); assay: Biacore binding to bFGF; parameters: key: +: sufficient to bind; −: unable to bind; conditions: tested in .65M NaCL
T4 construct: purchased R&D Sciences or SinoBiologicals
Experimental: as §3

[7] = tested on: nrgbx; assay: Biacore binding to nrgbx; parameters: key: +: sufficient to bind; −: unable to bind; conditions: tested in .65M NaCL
Experimental: as §3

[8] = target: T5, VEGF B (Homo sapiens, UniProt P49765); assay: Biacore binding to VEGF B; parameters: key: +: sufficient to bind; −: unable to bind; conditions: tested in .65M NaCL
T5 construct: purchased R&D Sciences or SinoBiologicals
T5 sequence (P49765 22-207): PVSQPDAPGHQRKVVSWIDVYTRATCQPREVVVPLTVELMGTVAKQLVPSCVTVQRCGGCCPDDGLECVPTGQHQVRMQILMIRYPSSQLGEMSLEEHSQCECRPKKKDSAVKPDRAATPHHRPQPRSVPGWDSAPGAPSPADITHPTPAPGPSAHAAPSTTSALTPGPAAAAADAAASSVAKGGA
Experimental: as §3

[9] = target: T6, nrgEGF (amino acids Thr176-Lys246 of neuregulin-beta 1) (Homo sapiens, UniProt Q02297); assay: Biacore binding to nrgEGF
T6 construct: Thr176-Lys246 of neuregulin-beta 1; purchased R&D Sciences or SinoBiologicals
T6 sequence (Q02297 176-246 isoform Q02297-6): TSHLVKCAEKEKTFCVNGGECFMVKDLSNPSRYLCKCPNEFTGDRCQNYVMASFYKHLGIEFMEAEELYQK
Experimental: as §3
In this example, erbB4 domain 1 was attached to the N-terminus of the recombinant IGFBP3-Fc or the recombinant IGFBP3-v1v2-Fc.

T2 sequence (P01344 25-91): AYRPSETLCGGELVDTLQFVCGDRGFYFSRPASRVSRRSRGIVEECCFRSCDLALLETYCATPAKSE
T4 sequence (P09038 143-288): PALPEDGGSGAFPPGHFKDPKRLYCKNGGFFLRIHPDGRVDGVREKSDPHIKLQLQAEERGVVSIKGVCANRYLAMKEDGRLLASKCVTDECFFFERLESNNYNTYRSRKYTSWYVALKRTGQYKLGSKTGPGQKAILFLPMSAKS
T3 sequence (P01127 82-190 limits assumed, other chains not shown): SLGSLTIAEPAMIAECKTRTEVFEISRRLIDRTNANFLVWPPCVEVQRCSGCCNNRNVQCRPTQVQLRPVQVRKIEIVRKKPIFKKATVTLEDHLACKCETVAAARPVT
T1 sequence (P05019 49-118 limits assumed): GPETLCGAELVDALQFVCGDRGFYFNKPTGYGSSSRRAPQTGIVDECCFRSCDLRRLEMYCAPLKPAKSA

Molecule	growth factor binding, igf1 [3]	growth factor binding, igf2 [4]	growth factor binding, PDGF AB [5]	growth factor binding, bFGF [6]	growth factor binding, nrgbx [7]	growth factor binding, VEGF B [8]	other results
B1							inhibition of VEGF-induced proliferation of HUVEC cells ([1]; FIG. 6, FIG. 13): did not inhibit; inhibition of HUVEC proliferation induced by IGF, bFGF, HGF or a combination ([1]; FIG. 13): inhibited
B2							inhibition of HUVEC proliferation stimulated by IGF-1, bFGF, HGF, VEGF, and combinations ([1]; FIG. 14): inhibited; inhibition with vemurafenib in HT29 cells [2]: synergistic inhibition
B3	+	+	+	+	+	+	
B4	+	+	−	−	−	−	
B5	−	−	−	−	−	−	
B6							Kd [9]: 11 nM
